Source: patent US20060228349A1 (published 2006)

Columns and labels:
[1] = biological target: T1, Biotinylated ADDL preparations (bADDLs) (N-terminal biotin); assay: BIACORE, bADDL as antigen; column Fab (row shifted one column to the left)
T1 construct: Oligomer, number of copies not fixed; also called biotinylated ADDL antigen; high molecular weight 10% bADDL

biotin-Aβ1-20 [2] = biological target: T2, biotin-Aβ1-20 (biotin (position not given)); assay: BIACORE, biotin-Aβ1-20 as antigen; column Fab
T2 peptide: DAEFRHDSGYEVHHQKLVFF

[3] = biological target: T3, ADDL fibril preparation (Aβ1-42 fibrils); assay: solution equilibrium titration, free IgG by ELISA, GraFit; SE 5.78
T3 construct: Fibrillar assembly; number of copies not fixed

Aβ1-20 peptide [4] = biological target: T4, Aβ1-20 peptide; assay: solution equilibrium titration, free IgG by ELISA, GraFit; SE 4.39
T4 peptide: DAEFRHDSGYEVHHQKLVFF

[5] = biological target: T5, Aβ-derived diffusible ligands (synthetic ADDLs), soluble oligomers of amyloid β1-42; assay: solution equilibrium titration, free IgG by ELISA, GraFit; SE 1.63
T5 construct: Oligomeric preparation of synthetic Aβ1-42 in DMSO/F12 (monomer, trimer, tetramer, 12-24mer on SDS-PAGE); number of copies not fixed; also called soluble Aβ oligomers

[6] = biological target: T6, amyloid beta (1-40) peptide; assay: solution equilibrium titration, free IgG by ELISA, GraFit; SE 6.21
T6 construct: Used as monomer-like control; also called Aβ1-40; monomer preparation

[7] = biological target: T3, ADDL fibril preparation (Aβ1-42 fibrils); assay: solution equilibrium titration, free IgG by ELISA, GraFit; SE 0.99
[8] = biological target: T6, amyloid beta (1-40) peptide; assay: solution equilibrium titration, free IgG by ELISA, GraFit; SE 2.64
[9] = biological target: T7, SEC Peak 2 fraction of ADDLs (small aggregates, <30 kDa); assay: sandwich ELISA on SEC peaks (FIG. 3)
T7 construct: Mostly monomer with small amounts of trimer and tetramer, no 12-24mer

[10] = biological target: T8, SEC Peak 1 fraction of ADDLs (large aggregates, >50 kDa); assay: sandwich ELISA on SEC peaks (FIG. 3)
T8 construct: Monomer, trimer, tetramer and 12-24mer on SDS-PAGE

[11] = biological target: T5, Aβ-derived diffusible ligands …; assay: solution equilibrium titration, free IgG by ELISA, GraFit; SE 0.25
Aβ1-20 peptide [12] = biological target: T4, Aβ1-20 peptide; assay: peptide ELISA
[13] = biological target: T3, ADDL fibril preparation (Aβ1-42 fibrils); assay: solution equilibrium titration, free IgG by ELISA, GraFit; SE 0.59
[14] = biological target: T6, amyloid beta (1-40) peptide; assay: solution equilibrium titration, free IgG by ELISA, GraFit; SE 21.86
[15] = biological target: T5, Aβ-derived diffusible ligands …; assay: solution equilibrium titration, free IgG by ELISA, GraFit; SE 0.74
[16] = biological target: T5, Aβ-derived diffusible ligands …; assay: solution equilibrium titration, free IgG by ELISA, GraFit; SE 1.03
[17] = biological target: T3, ADDL fibril preparation (Aβ1-42 fibrils); assay: solution equilibrium titration, free IgG by ELISA, GraFit; SE 3.69
[18] = biological target: T6, amyloid beta (1-40) peptide; assay: solution equilibrium titration, free IgG by ELISA, GraFit; SE 4.14
[19] = biological target: T6, amyloid beta (1-40) peptide; assay: solution equilibrium titration, free IgG by ELISA, GraFit; SE 2.07
[20] = biological target: T5, Aβ-derived diffusible ligands …; assay: solution equilibrium titration, free IgG by ELISA, GraFit; SE 0.42
[21] = biological target: T3, ADDL fibril preparation (Aβ1-42 fibrils); assay: solution equilibrium titration, free IgG by ELISA, GraFit; SE 1.60
[22] = biological target: T3, ADDL fibril preparation (Aβ1-42 fibrils); assay: solution equilibrium titration, free IgG by ELISA, GraFit; SE 2.40
[23] = biological target: T6, amyloid beta (1-40) peptide; assay: solution equilibrium titration, free IgG by ELISA, GraFit; SE 5.84
Aβ1-20 peptide [24] = biological target: T4, Aβ1-20 peptide; assay: solution equilibrium titration, free IgG by ELISA, GraFit; SE 7.07
[25] = biological target: T5, Aβ-derived diffusible ligands …; assay: solution equilibrium titration, free IgG by ELISA, GraFit; SE 0.52
[26] = biological target: T5, Aβ-derived diffusible ligands …; assay: immunofluorescence of ADDLs bound to primary hippocampal neurons
[27] = biological target: T1, Biotinylated ADDL preparations (bADDLs); assay: BIACORE, bADDL as antigen; column IgG1#1
[28] = biological target: T1, Biotinylated ADDL preparations (bADDLs); assay: BIACORE, bADDL as antigen; column IgG1#2
biotin-Aβ1-20 [29] = biological target: T2, biotin-Aβ1-20; assay: BIACORE, biotin-Aβ1-20 as antigen; column IgG1#2
biotin-Aβ1-20 [30] = biological target: T2, biotin-Aβ1-20; assay: BIACORE, biotin-Aβ1-20 as antigen; column IgG1#1

B1: Fab of mouse 20C2 (Fab, V domains shown)
VH: QVTLKESGPGILKPSQTLSLTCSLSGFSLSTSGMGVGWFRQPSGKGLEWLAHIWWDDDKSYNPSLKSRLTISKYTSRNQVFLTITSVDTADTATYYCARRQLGLRSIDAMDYWGQGTSVTVSS
VL: DVLMTQTPLSLPVSLGDQASISCRSSQSILHSNGNTYLEWYLQKPGQSPKLLIYKVSNRFSGVPDRFSGSGSGTDFTLKISRVEAEDLGVYYCFQGSLVPLTFGAGTKLELK
notes: also called Mouse-20C2 (Fab column)
For B1, the Kd [1] was 62 nM and the Kd (biotin-Aβ1-20 [2]) was 83 nM.

B2: murine anti-ADDL monoclonal antibody 5F10 (antibody, V domains shown)
VH: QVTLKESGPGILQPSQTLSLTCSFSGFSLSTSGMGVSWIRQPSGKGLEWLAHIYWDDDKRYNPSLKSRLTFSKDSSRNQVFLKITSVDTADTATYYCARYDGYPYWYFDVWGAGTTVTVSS
VL: VVLMTQTPLSLPVSLGDQASISCRSSQSLVHSNGNTYLHWYLQKPGQSPKLLIYKVSNRFSGVPDRFSGSGSGTDFTLKISRVEAEDLGVYFCFQSTHVPLTFGAGTKLELK
notes: also called SF10
In the case of B2, the Kd [3] is reported as 28.9 nM, the Kd (Aβ1-20 peptide [4]) is reported as 6.1 nM and the Kd [5] is reported as 11.9 nM. It also gave a Kd [6] of 23.5 nM.

B3: murine anti-ADDL monoclonal antibody 2A10 (antibody, mouse IgG1, V domains shown)
VH: QVTLKESGPGILKPSQTLSLTCSFSGFSLSTSGMGVGWIRQPSGKGLEWLAHIWWDDDKYYNPSLKSQLTISKDTSRNQVFLKITSVDTADTATYYCARRSISTLVPEDYFDYWGQGTTLTVSS
VL: DVLMTQTPLSLPVSLGDQASISCRSSQSIVHSNGNTYLEWYLQKPGQSPKLLIYKVSNRFSGVPDRFSGSGSGTDFTLKISRVEAEDLGVYYCFQGSHVPLTFGAGTKLELK
In the case of B3, the Kd [7] is reported as 6.72 nM, the Kd [8] is reported as 14.7 nM and the binding result [9] is reported as “binds”. For the same binder, the binding result [10] was “binds” and the Kd [11] was 2.29 nM.

B4: murine anti-ADDL monoclonal antibody 1F6 (antibody, mouse IgG1, V domains shown)
VH: DVQLVESGGGLVQPGGSRKLSCAASGFTFSSFGMHWVRQAPEKGLEWVAYISSVSSTIYYADTVKGRFTISRDNPKNTLFLQMTSLRSEDTAMYYCARSGYGSSYGYGMDYWGQGTLVTVSS
VL: DVLMTQTPLSLPVSLGDQASISCRSSQSIVHSNGNTYLEWYLQKPGQSPKLLIYKVSNRFSGVPDRFSGSGSGTDFTLKISRVEAEDLGVYYCFQGSHVPLTFGAGTKLELK
B4: binds (Aβ1-20 peptide [12]).

B5: murine anti-ADDL monoclonal antibody 3B3 (antibody, mouse IgG1, V domains shown)
VH: DVQLVESGGGLVQPGGSRKLSCAASGFTFSSFGMHWVRQAPEKGLEWVAYISRGSSTIYYADTVKGRFTISRDNPKNTLFLQMTSLRSEDTAMYYCARGITTALDYWGQGTSVTVSS
VL: DVLMTQTPLSLPVSLGDQASISCRSSQSIVHSNGNTYLEWYLQKPGQSPKLLIYKASNRFSGVPDRFSGSGSGTDFTLKISRVEAEDLGVYYCFQGSHVPPTFGGGTKLEIK
B5 was tested, and the Kd [13] was 7.21 nM, the binding result (Aβ1-20 peptide [12]) was “binds” and the Kd [14] was 105 nM. The Kd [15] was 10 nM.

B6: murine anti-ADDL monoclonal antibody 4C2 (antibody, mouse IgG1, V domains shown)
VH: QVTLKESGPGILKPSQTLSLTCSFSGFSLSTSGMGVGWIRQPSGKGLEWLAHIWWDDDKYYNPSLKSQLTISKDTSRNQVFLKITSVDTADTATYYCARRSITTVVPEDYFAYWGQGTTLTVSS
VL: DVLMTQSPLSLPVSLGDQASISCRSSQSIVHSNGNTYLEWYLQKPGQSPKLLIYKVSNRFSGVPDRFSGSGSGTDFTLKISRVEAEDLGVYYCFQGSHVPLTFGAGTKLELK
B6 was tested, and the Kd [16] was 8.08 nM, the binding result [9] was “binds” and the binding result [10] was “binds”. It also gave a Kd [17] of 19.2 nM and a Kd [18] of 21.9 nM.

B7: murine anti-ADDL monoclonal antibody 4E2 (antibody, mouse IgG1, V domains shown)
VH: QVTLKESGPGILKPSQTLSLTCSFSGFSLSTSGMGVGWIRQPSGKGLEWLAHIWWDDDKYYNPSLKSQLTISKDTSRNQVFLKITSVDTADTATYYCARRSINSVVPEDYFDYWGQGTTLTVSL
VL: DVLMTQTPLSLPVSLGDQASISCRSSQSIVHSNGNTYLEWYLQKPGQSPKLLIYKVSNRFSGVPDRFSGSGSGTDFTLKISRVEAEDLGVYYCFQGSHVPLTFGAGTKLELK
For B7, the Kd [19] was 20.2 nM, the Kd [20] was 4.26 nM and the binding result [9] was “binds”. For the same binder, the binding result [10] was “binds” and the Kd [21] was 9.4 nM.

B8: murine anti-ADDL monoclonal antibody 2D6 (antibody, mouse IgG1, V domains shown)
VH: QVTLKESGPGILKPSQTLSLTCSFSGFSLSTSGMGVGWIRQPSGKGLEWLAHIWWDDDKYYNPSLKSQLTISKDTSRNQVFLKITSVDTADTATYYCARRSISTVIPEDYFDYWGQGTILTVSS
VL: DVLMTQTPLSLTVSLGDQASISCRSSQSIVHSNGNTYLEWYLQKPGQSPKLLIYKVSNRFSGVPDRFSGSGSGTDFTLKISRVEAEDLGVYYCFQGSHVPLTFGAGTKLELK
For B8, the Kd [22] was 14.4 nM, the Kd [23] was 25.7 nM and the Kd (Aβ1-20 peptide [24]) was 30.2 nM. The Kd [25] was 5.05 nM.

B9: murine anti-ADDL monoclonal antibody 2H4 (antibody, mouse IgG2a, V domains shown)
VH: DVQLVESGGGLVQPGGSRKLSCAASGFTFSSFGMHWVRQAPEKGLEWVAYIRSGSSTIYYADTVKGRFTISRDNPKNTLFLQMTSLRSEDTAMYYCTRGGNYYGSSRFAYWGQGTLVTVSA
VL: DIKMTQSPSSMYASLGERVTITCKASQDINSYLSWFQQKPGKSPKTLIYRANRFVDGVPSRFSGSGSGQDYSLTISSLEYEDMGIYFCLQYDEFPLTFGAGTKLVLK
B9: binds [26].

B10: 20C2-8B, affinity matured humanized 20C2, IgG1 humanized B version (antibody, V domains shown)
VH: QVTLKESGPALVKPTQTLTLTCTLSGFSLSTSGMGVGWIRQPPGKALEWLAHIWWDDDKSYNPSLKSRLTISKDTSKNQVVLTMTNMDPVDTATYYCARRQLGLRSIDAMDYWGQGTTVTVSS
VL: DVVMTQSPLSLPVTPGEPASISCRSSQSILHSNGNTYLEWYLQKPGQSPQLLIYKVSNRFSGVPDRFSGSGSGTDFTLKISRVEAEDVGVYYCLQTTRVPLTFGQGTKLEIKR
notes: also called SJ-p2-39
Binder B10 has a Kd [27] of 0.013 nM, a Kd [28] of 0.0008 nM and a Kd (biotin-Aβ1-20 [29]) of 0.064 nM. It also gave a Kd (biotin-Aβ1-20 [30]) of 0.046 nM.

B11: 20C2-23A, affinity matured humanized 20C2, IgG1 humanized A version (antibody, V domains shown)
VH: QVTLKESGPALVKPTQTLTLTCTFSGFSLSTSGMGVGWIRQPPGKALEWLAHIWWDDDKSYNPSLKSRLTISKDTSKNQVVLTMTNMDPVDTATYYCARRQLGLRSIDAMDYWGQGTTVTVSS
VL: DVVMTQSPLSLPVTPGEPASISCRSSQSILHSNGNTYLEWYLQKPGQSPQLLIYKVSNRFSGVPDRFSGSGSGTDFTLKISRVEAEDVGVYYCHQSSKVPLTFGQGTKLEIKR
notes: also called 4P1-40
In the case of B11, the Kd [27] is reported as 0.085 nM, the Kd [28] is reported as 0.066 nM and the Kd (biotin-Aβ1-20 [29]) is reported as 1.5 nM. It also gave a Kd (biotin-Aβ1-20 [30]) of 0.649 nM.
